According to patent publication US20260176659A1, “IMPROVED METHOD FOR THE PRODUCTION OF NATURAL VANILLIN” (BASE SE, priority 2022, published 2026):
Where “and” joins values, the source holds several entries; their conditions need not be identical. Equal values may be shown once. One block for each molecule: values may come before it.

What was measured:
Type in all cases: biochemical
[1] = Spectrophotometric enzymatic assay: cleaving activity, production of vanillin from coniferyl alcohol at 349 nm; details: spectrophotometric assay
Procedure: Stock solution 200× of coniferyl alcohol (90 mg) was prepared in ethanol (5 mL) and stored at −20° C. From this, a new stock solution 20× of coniferyl alcohol (10 mM) was freshly prepared by 1:10 dilution in Glycine-NaOH (50 mM, pH 9.0). A cuvette containing 0.750 mL Glycine-NaOH (50 mM, pH 9.0) and 0.05 mL of the substrate 20× stock was pre-warmed at 25° C. for 1.5 mins. Then, the reaction was initiated by the addition of 0.2 mL of the enzyme sample. The cleaving […] activity was measured spectrophotometrically following the production of vanillin at 349 nm (ε349=26.7 mM^−1cm^−1 experimentally determined). One unit of activity (U) is defined as the amount of enzyme required to produce 1 μmol of vanillin per min. Agilent Cary 60 UV-Vis Spectrophotometer was used for all the measurements.
Searching for alternative novel alkene cleavage oxygenases (COs) catalysing the formation of vanillin from coniferyl alcohol was performed. A set of 27 sequences and 10 COs from different branches of the phylogenetic tree were selected, named CO-02-11. Two additional enzymes were included, which are located in different clusters of the phylogenetic tree: Lignostillbene dioxygenase from Pseudomonas brassicaceraum (PbLSD, PDB: 5V2D) and aromatic dioxygenase (Ado, CO-01) from Thermothelomyces thermophilus (GenBank ID: XP_003665585). The proteins were recombinantly expressed in E. coli BL21(DE3), following the same protocol developed for IECO. […] Putative COs were screened by spectrophotometric assay, monitoring the formation of 3a upon 2a cleavage. From a set of twelve COs, four positive hits, namely CO-01, CO-03, CO-06 and CO-07 were found. Positive variants were tested in the one pot cascade and compared them with IECO In agreement with the spectrophotometric screening, all four COs converted eugenol 1a to vanillin 3a (Table 8). The first step of the cascade is efficiently performed by EUGO, and the substrate is completely consumed. […] Overall, 70±3% conversion of 1a to vanillin 3a was achieved.

[2] = Bioconversion of eugenol to vanillin: one-pot concurrent cascade EUGO + alkene cleavage oxygenase (5 mM scale); details: for Reaction composition after 24 hours 1a (%) / Reaction composition after 24 hours 2a (%) / Reaction composition after 24 hours 3a (%) / Reaction composition after 24 hours 5a (%): Table 8a, CO-XX FD-CFE 1 mg/mL; for Reaction composition after 24 hours 1a (%) / Reaction composition after 24 hours 2a (%) / Reaction composition after 24 hours 3a (%) / Reaction composition after 24 hours 5a (%) / Product distribution after 24 hours 2a (%) / Product distribution after 24 hours 3a (%) / Product distribution after 24 hours 5a (%): EUGO FD-CFE 1 mg/mL, catalase 10 mg/mL, eugenol 5 mM; for Reaction composition at 24 hours (%) 1a / Reaction composition at 24 hours (%) 2a / Reaction composition at 24 hours (%) 3a / Reaction composition at 24 hours (%) 5a / Conversion of 1a to 3a (%): EUGO fresh CFE 1 mg/mL, IECO 0 mg/mL; for Conversion of 1a to 3a (%): 24 h; for Product distribution after 24 hours 2a (%) / Product distribution after 24 hours 3a (%) / Product distribution after 24 hours 5a (%): Table 8b, CO-0X FD-CFE 1 mg/mL
Procedure: Stock solutions of eugenol (100 mM) were prepared in ethanol or DMSO and stored at −20° C. Unless otherwise stated, the reaction mixtures (0.5 mL) were set up in 1.5 mL glass vials as follows: freeze-dried cell free extract of IECO/CO-XX (3 mg) and EUGO (0.5 mg) were dissolved in the reaction buffer (50 mM glycine-NaOH pH 9.0) containing sodium ascorbate (1 mM), FeSO4 (1 mM) and bovine liver catalase (5 mg, Sigma Aldrich C40). The reaction was initiated by the addition of 0.025 mL eugenol stock (final concentration 5 mM), then incubated at 30° C. and 120 rpm overnight (rotary shaker). The final content of cosolvent was 5% v/v. To improve oxygenation, the vials were placed horizontally. At certain time points, samples (0.2 mL) were quenched with methanol (0.4 mL) and the mixture was centrifuged at 20238 g for 5-10 mins. Finally, the supernatant was analysed by HPLC.
EUGO (0.5 mg CFE), CO-25 (3 mg CFE) and catalase (5 mg, Sigma product #C40) were dissolved in 50 mM Glycine-NaOH pH 9.0 or Tris-HCl pH 8.0 together with FeSO4 (1 mM) and sodium ascorbate (1 mM). Note that the buffer content of the freeze-dried biocatalyst prep was not considered for the assembling of the reaction. The reaction was started by the addition of 5 mM eugenol from a 20× stock in ethanol. The reactions—performed in glass vials—were then incubated at 30° C. and 120 rpm (25 mm shaker). Finally, samples of the reaction mixture were diluted with MeOH and analyzed by HPLC at 280 and 340 nm.

[3] = Biotransformation of eugenol to coniferyl alcohol by EUGO (50 mM scale)
Procedure: The biotransformation (total volume 3 mL) was performed in a 10 mL round bottom flask with a stir bar. Eugenol (0.023 mL, 25 mg, 0.15 mmol, 1.0 equiv., 50 mM final conc.) was dissolved in DMSO or ethanol (0.150 mL). Then, the solution was diluted with Tis-HCl buffer (50 mM, pH 8.0, 2.827 mL). To obtain a homogeneous dispersion of the eugenol droplets, the mixture was stirred for about 15-20 mins. Then bovine liver catalase (Sigma P #C40, 30 mg, 2300 kU) and EUGO (30 mg of freeze-dried cell free extract, Tris base salt content was neglected) were added consecutively (note: EUGO was added after the catalase was completely dissolved). The reaction was incubated at room temperature and gentle stirring (40 rpm) for 17-24 hours. At certain time points, samples (0.1 mL) were diluted with methanol (0.8 mL, 8 vol equiv.) for stopping the reaction. The samples were centrifuged at 20238×g for 10 mins and the supernatant was analyzed by HPLC. When the reaction was completed, the products were extracted with ethyl acetate (3×1.5 mL EtOAc, in 2 mL microcentrifuge tubes). The aqueous and organic phases were separated by centrifugation (20238×g for ˜3 mins). Then, the organic phase was dried with NaSO4 and concentrated under reduced pressure (40° C., 200 mbar), but not dried completely to avoid polymerization. The concentrate was directly purified by silica gel chromatography (10 mL column volume) using a mixture of 1:1 etylacetate:cyclohexane as eluent. Fractions containing coniferyl alcohol (according to TLC) were combined and concentrated under reduced pressure (40° C., 200 mbar). Final drying under high vacuum (1.5 mbar) and inert gas flow yielded the title compound as yellowish solid (24.2 mg, 0.134 mmol, 90% yield). Notes: The obtained product was stored at −20° C. under inert gas atmosphere. Evaporation of a product solution in chloroform induced polymerization, therefore, no crude NMR was taken before product purification.

[4] = EUGO FD-CFE 10 mg/mL, eugenol 50 mM, catalase 10 mg/mL, pH 8.0, 5% v/v DMSO, room temperature, 17 hours
[5] = EUGO FD-CFE 10 mg/mL, eugenol 50 mM, catalase 10 mg/mL, pH 8.0, 5% v/v DMSO, room temperature, 24 hours

Reaction composition after 24 hours 1a (%) ([2]; pH 8.0): ≤1%
Reaction composition after 24 hours 2a (%) ([2]; pH 8.0): 74%
Reaction composition after 24 hours 3a (%) ([2]; pH 8.0): 9%
Reaction composition after 24 hours 5a (%) ([2]; pH 8.0): 17%
Reaction composition after 24 hours 1a (%) ([2]; pH 9.0): 51%
Reaction composition after 24 hours 2a (%) ([2]; pH 9.0): 63%
Reaction composition after 24 hours 3a (%) ([2]; pH 9.0): 13%
Reaction composition after 24 hours 5a (%) ([2]; pH 9.0): 24%
B1: CO-01: aromatic dioxygenase from Thermothelomyces thermophilus (GenBank XP_003665585), SEQ ID NO: 26 (protein, listed as Thermothelomyces thermophilus)
chain: MAHIHDLAPEVSNYSSGRLTPPTPVRFPRTPVFASMNKPCRFEGDVFDLEVSGAIPPDIDGTFFRVQPDHRFPPLFEDDIHFNGDGSVTAIRISGGHADLRQRYVRTERYLLETRARRSLFGRYRNPWTDNESVRGVIRTASNTNVVFWRGALLAMKEDGPPFAMDPVTLETLGRYDFEGQILSPTFTAHPKIDPDTGEMVCFAYEAGGDGSDCSVDVAVWTVDADGKKVEECWYKAPFAGMIHDCGITKNWVVLPLTPIKMDLERMKRGGNKFAWDPSEDQWYGVVPRRGAKSDDIIWFRADNGFHGHVAGCYELPSGEIVFDLTVADGNVFFFFPPDDNITPPADGVAKRNRLSSPTVRWIFDPKAKKSAIRTEAAGDADIWVADERVKPALTWPTNGEFSRIDDRYVTKPYRHFWQAVVDPTRPYDFEKCGPPAGGLFNCLGHYTWSDQNYHHGHNTGDPSGDGRSNGSAEEATAGKFGLQDVYFAGPTMTFQEPTFIPRQGAAEGEGYLIALLNHLDELRNDVVIFEARNLGKGPLAVIHLPLKLKLGLHGNWVDSREIEAWRRRRAENGDVGPLRVAKEPLPWQKKFAAAAQNGSNGV
Screening of putative COs: formation of 3a upon 2a cleavage (hit or inactive) [1]: positive hits

Reaction composition at 24 hours (%) 1a ([2]; cosolvent DMSO 5% v/v, 5 mM 1a): 1≤ %
Reaction composition at 24 hours (%) 2a ([2]; cosolvent DMSO 5% v/v, 5 mM 1a): 96%
Reaction composition at 24 hours (%) 3a ([2]; cosolvent DMSO 5% v/v, 5 mM 1a): 1≤ %
Reaction composition at 24 hours (%) 5a ([2]; cosolvent DMSO 5% v/v, 5 mM 1a): 2%
Reaction composition at 24 hours (%) 1a ([2]; cosolvent EtOH 5% v/v, 5 mM 1a): 1≤ %
Reaction composition at 24 hours (%) 2a ([2]; cosolvent EtOH 5% v/v, 5 mM 1a): 97%
Reaction composition at 24 hours (%) 3a ([2]; cosolvent EtOH 5% v/v, 5 mM 1a): 1≤ %
Reaction composition at 24 hours (%) 5a ([2]; cosolvent EtOH 5% v/v, 5 mM 1a): 2%
time in which the oxidation step (1a to 2a) occurs ([2]; one pot concurrent cascade EUGO-IECO, 5 mM 1a, time studies): within the first two hours
B2: EUGO: eugenol oxidase from Rhodococcus jostii (Uniprot: Q0SBK1), SEQ ID NO: 2, used as cell free extract (protein)
chain: MTRTLPPGVSDERFDAALQRFRDVVGDKWVLSTADELEAFRDPYPVGAAEANLPSAVVSPESTEQVQDIVRIANEYGIPLSPVSTGKNNGYGGAAPRLSGSVIVKTGERMNRILEVNEKYGYALLEPGVTYFDLYEYLQSHDSGLMLDCPDLGWGSVVGNTLDRGVGYTPYGDHFMWQTGLEVVLPQGEVMRTGMGALPGSDAWQLFPYGFGPFPDGMFTQSNLGIVTKMGIALMQRPPASQSFLITFDKEEDLEQIVDIMLPLRINMAPLQNVPVLRNIFMDAAAVSKRTEWFDGDGPMPAEAIERMKKDLDLGFWNFYGTLYGPPPLIEMYYGMIKEAFGKIPGARFFTHEERDDRGGHVLQDRHKINNGIPSLDELQLLDWVPNGGHIGFSPVSAPDGREAMKQFEMVRNRANEYNKDYAAQFIIGLREMHHVCLFIYDTAIPEAREEILQMTKVLVREAAEAGYGEYRTHNALMDDVMATFNWGDGALLKFHEKIKDALDPNGIIAPGKSGIWSQRFRGQNL
modifications: cell free extract; Rhodococcus Jostii
Conversion of 1a to 3a (%) ([2]; cosolvent DMSO 5% v/v, 5 mM 1a): 1≤ %
Conversion of 1a to 3a (%) ([2]; cosolvent EtOH 5% v/v, 5 mM 1a): 1≤ %
2a [3, 4]: 48 mM and 41 mM
Reaction composition (%) 2a [3, 4]: 95% and 76%
Reaction composition (%) 5a [3, 4]: 4% and 3%
2a [3, 5]: 50 mM
Reaction composition (%) 1a [3, 5]: 0%
Reaction composition (%) 2a [3, 5]: 95%
Reaction composition (%) 5a [3, 5]: 5%
time within which the substrate was consumed ([3]; EUGO cell free extract, 50 mM 1a): ≤ 24 h

Product distribution after 24 hours 2a (%) ([2]; pH 8.0): 78.5%
Product distribution after 24 hours 3a (%) ([2]; pH 8.0): 6.1%
Product distribution after 24 hours 5a (%) ([2]; pH 8.0): 15.4%
Product distribution after 24 hours 2a (%) ([2]; pH 9.0): 73.9%
Product distribution after 24 hours 3a (%) ([2]; pH 9.0): 5.6%
Product distribution after 24 hours 5a (%) ([2]; pH 9.0): 20.5%
B3: CO-24: alkene cleavage oxygenase, Pseudomonas ogarae, SEQ ID NO: 132 (protein, listed as Pseudomonas ogarae)
chain: MSIPFPQTPEFSGVLYTPSRVEAEVFDLEIEGILPASICGTFYQVAPDPQYPPMLGNDIFFNGDGVVSRFNFANGKVSMRRRYVKTDRLLAQRREGRSLNGVYRNVYTNDPLAAKNNTTANTTVIPHNGVLLALKEDALPWALDLETLETLGEWTFDGQIKAATFTAHPKLDPVTGNLLACSYEAKGDGTPDLAYFEISPDGKLLHEIWFQAPYAAMVHDFAVTERYVVFPLIPLTVDVERMKNGGPHFQWQPDLPQLFAIVPRNGCGQDVRWFKGPKDGFQGHTLNAFDEDGKVYVDMPVTGGNIFYFFPQADGYVPPPETLAASLMRWTFDLNGAQEDVQPQPLTEYPCEFPRCDDRYIGRKYQHGFLLAFDPERPYNPANGPIPFQFFNLLAHLDLQTGRTDAWFPGDSGCFQEPIFIPRSADAEEADGYVVALLNLIAEGRSELVVLDTRDMASGPIARIRIPFRMRMSLHGCWAPND
